Reference: patent US20040087777A1

Legend:
Test in all cases: rNET
[1] = target: … analog, Residue 4 = S
[2] = target: … analog, Residue 6 = V
[3] = target: … analog, Residue 6 = K
[4] = target: … analog, Residue 5 = N
[5] = target: … analog, Residue 7 = W
[6] = target: … analog, Residue 4 = G
[7] = target: … analog, Residue 6 = A
[8] = target: … analog, Residue 6 = P
[9] = target: … analog, Residue 4 = W
[10] = target: … analog, Residue 5 = F
[11] = target: … analog, Residue 7 = G
[12] = target: … analog, Residue 5 = W
[13] = target: … analog, Residue 6 = Q
[14] = target: … analog, Residue 7 = K
[15] = target: … analog, Residue 5 = Y
[16] = target: … analog, Residue 4 = L
[17] = target: … analog, Residue 6 = E
[18] = target: … analog, Residue 5 = Q
[19] = target: … analog, Residue 4 = N
[20] = target: … analog, Residue 6 = I
[21] = target: … analog, Residue 4 = V
[22] = target: … analog, Residue 7 = Y
[23] = target: … analog, Residue 5 = S
[24] = target: … analog, Residue 4 = M
[25] = target: … analog, Residue 4 = Y
[26] = target: … analog, Residue 5 = T
[27] = target: … analog, Residue 7 = I
[28] = target: … analog, Residue 7 = V
[29] = target: … analog, Residue 7 = F
[30] = target: … analog, Residue 6 = Y
[31] = target: … analog, Residue 4 = A
[32] = target: … analog, Residue 4 = T
[33] = target: … analog, Residue 4 = D
[34] = target: … analog, Residue 7 = S
[35] = target: … analog, Residue 5 = P
[36] = target: … analog, Residue 6 = L
[37] = target: … analog, Residue 7 = T
[38] = target: … analog, Residue 6 = C
[39] = target: … analog, Residue 4 = C
[40] = target: … analog, Residue 7 = M
[41] = target: … analog, Residue 6 = D
[42] = target: … analog, Residue 4 = E
[43] = target: … analog, Residue 5 = E
[44] = target: … analog, Residue 6 = N
[45] = target: … analog, Residue 4 = R
[46] = target: … analog, Residue 7 = Q
[47] = target: … analog, Residue 7 = A
[48] = target: … analog, Residue 7 = R
[49] = target: … analog, Residue 4 = I
[50] = target: … analog, Residue 6 = W
[51] = target: … analog, Residue 5 = V
[52] = target: … analog, Residue 6 = G
[53] = target: … analog, Residue 4 = K
[54] = target: … analog, Residue 4 = Q
[55] = target: … analog, Residue 4 = P
[56] = target: … analog, Residue 6 = R
[57] = target: … analog, Residue 5 = D
[58] = target: … analog, Residue 5 = A
[59] = target: … analog, Residue 7 = P
[60] = target: … analog, Residue 5 = M
[61] = target: … analog, Residue 6 = M
[62] = target: … analog, Residue 5 = L
[63] = target: … analog, Residue 5 = I
[64] = target: … analog, Residue 5 = C
[65] = target: … analog, Residue 7 = L
[66] = target: … analog, Residue 6 = F
[67] = target: … analog, Residue 7 = C

OD [1]: 0.026 OD | OD [2]: 0.588 OD | OD [3]: 0.585 OD | OD [4]: 0.476 OD | OD [5]: 0.547 OD | OD [6]: 0.016 OD | OD [7]: 0.587 OD | OD [8]: 0.587 OD | OD [9]: 0.291 OD | OD [10]: 0.439 OD | OD [11]: 0.562 OD | OD [12]: 0.393 OD | OD [13]: 0.57 OD | OD [14]: 0.565 OD | OD [15]: 0.278 OD | OD [16]: 0.559 OD | OD [17]: 0.579 OD | OD [18]: 0.388 OD | OD [19]: 0.085 OD | OD [20]: 0.602 OD | OD [21]: 0.213 OD | OD [22]: 0.56 OD | OD [23]: 0.487 OD | OD [24]: 0.549 OD | OD [25]: 0.529 OD | OD [26]: 0.53 OD | OD [27]: 0.552 OD | OD [28]: 0.563 OD | OD [29]: 0.546 OD | OD [30]: 0.595 OD | OD [31]: 0.016 OD | OD [32]: 0.016 OD | OD [33]: 0.017 OD | OD [34]: 0.563 OD | OD [35]: 0.093 OD | OD [36]: 0.584 OD | OD [37]: 0.56 OD | OD [38]: 0.585 OD | OD [39]: 0.02 OD | OD [40]: 0.562 OD | OD [41]: 0.584 OD | OD [42]: 0.016 OD | OD [43]: 0.115 OD | OD [44]: 0.58 OD | OD [45]: 0.016 OD | OD [46]: 0.563 OD | OD [47]: 0.58 OD | OD [48]: 0.551 OD | OD [49]: 0.119 OD | OD [50]: 0.576 OD | OD [51]: 0.493 OD | OD [52]: 0.592 OD | OD [53]: 0.015 OD | OD [54]: 0.065 OD | OD [55]: 0.03 OD | OD [56]: 0.576 OD | OD [57]: 0.08 OD | OD [58]: 0.275 OD | OD [59]: 0.582 OD | OD [60]: 0.418 OD | OD [61]: 0.583 OD | OD [62]: 0.517 OD | OD [63]: 0.51 OD | OD [64]: 0.359 OD | OD [65]: 0.566 OD | OD [66]: 0.586 OD | OD [67]: 0.559 OD
B1: murine monoclonal antibody 3D6 (antibody, mouse IgG2b, V domains shown)
VL: not shown
VH: EVKLVESGGGLVKPGASLKLSCAASGFTFSNYGMSWVRQNSDKRLEWVASIRSGGGRTYYSDNVKGRFTISRENAKNTLYLQMSSLKSEDTALYYCVRYDHYSGSSDYWGQGTTVTVSS
